Experimental data as given in patent US5500344A, “Serine protease and uses thereof” (The United States of America as represented by the …, priority 1992, dated 1996).
Values belong to the molecule of their own block, whether it stands above or below them. Starred links: 1 amine or outer side, 2 acyl side, 3 side chain; linkers in the order of their positions; H or OH if unused. Residues, ends and D or L forms follow the SMILES beside them. *: point of attachment. Suc = O=C(CCC(=O)[*:2])[*:1]; SBn = c1ccc(CS*)cc1

Experiments:
Met-ase = target: T1, Met-ase (Rattus norvegicus, UniProt Q03238); test: Initial rates of peptide thiobenzyl ester substrate hydrolysis by HPLC-purified Met-ase (HPLC fraction 104); format: biochemical; details: [S] 100-133 μM, pH 7.5, 25° C.
T1 construct: endogenous in cells; host or cells: rat RNK-16 LGL leukemia cells, cytolytic granules, HPLC fraction 104
T1 sequence (Q03238 21-258 limits assumed): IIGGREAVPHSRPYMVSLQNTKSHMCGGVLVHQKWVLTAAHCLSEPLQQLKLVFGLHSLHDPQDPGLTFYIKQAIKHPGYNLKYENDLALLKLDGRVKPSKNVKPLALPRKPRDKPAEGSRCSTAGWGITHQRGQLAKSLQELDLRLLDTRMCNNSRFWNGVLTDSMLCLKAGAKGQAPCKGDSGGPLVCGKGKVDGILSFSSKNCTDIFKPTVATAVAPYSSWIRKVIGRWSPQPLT
Description: (§1) Briefly, 50 μl of sample was added to 100 μl of 1 mM DTNB, made up in 10 mM Hepes, 1 mM CaCl2, 1 mM MgCl2, pH7.2. The reaction was initiated by the addition of 50 μl of BLT (Sigma) to give a final concentration of 500 μM. For Metase determinations, 50 μl of dilutions of the sample in 0.1M Hepes, 0.05M CaCl2, pH7.5 were added to 100 μl of 1 mM DTNB and the reaction was initiated by the addition of 50 μl of Boc-Ala-Ala-Met-S Benzyl (Bzl) to give a final concentration of 150 μM. The duration of the assay depended on color development, the rate of which was measured (0.D410) on a Dynatech MR 5000 microplate reader. Controls of sample and DTNB alone or DTNB and substrate alone were run. For more sensitive comparisons of enzymatic activities, peptide thiobenzyl ester substrates were used to measure protease activities. The chymase substrate Suc-Phe-Leu-Phe-SBzl was purchased from BACHEM Bioscience Inc., Philadelphia, Pa. […] Boc-Ala-Ala-Asp-SBzl is the substrate for Asp-ase and peptide thiobenzyl esters containing Met, Leu or Nle are substrates for Met-ase SP. […] The initial rates were measured at 324 nm using a Beckman 35 spectrophotometer when 10-25 μl of an enzyme stock solution was added to a cuvette containing 2.0 ml of buffer, 150 μl of 4,4'-dithiodipyridine and 25 μl of substrate. The same volume of substrate and 4,4'-dithiodipyridine were added to the reference cell in order to compensate for the background hydrolysis rate of the substrates. Initial rates were measured in duplicate for each substrate concentration and were averaged in each case.
(§2) 10 μl of enzyme solution was added to […]

Tryptase = target: T2, Tryptase (Rattus norvegicus, UniProt P49864); test: Initial rates of peptide thiobenzyl ester substrate hydrolysis by HPLC-purified Tryptase (HPLC fraction 56); format: biochemical; details: [S] 100-133 μM, pH 7.5, 25° C.
T2 construct: The BLT-esteraseactivity was found in fractions 49 and 56; endogenous in cells; host or cells: rat RNK-16 NK/LGL leukemia cells, cytolytic granules, HPLC fraction 56
T2 sequence (P49864 26-258): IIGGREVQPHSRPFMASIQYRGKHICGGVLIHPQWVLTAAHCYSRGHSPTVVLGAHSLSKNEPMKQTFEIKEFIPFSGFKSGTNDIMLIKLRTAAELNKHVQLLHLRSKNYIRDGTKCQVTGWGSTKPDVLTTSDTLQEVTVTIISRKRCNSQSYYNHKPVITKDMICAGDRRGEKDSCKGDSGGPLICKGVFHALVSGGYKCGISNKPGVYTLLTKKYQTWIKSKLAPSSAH
Description: as §1, §2

Asp-ase = target: T3, Asp-ase (Rattus norvegicus, UniProt P18291); test: Initial rates of peptide thiobenzyl ester substrate hydrolysis by HPLC-purified Asp-ase; format: biochemical; details: 10 μl enzyme solution; [S] 100-133 μM; 0.1 M Hepes, 0.01 M CaCl2, pH 7.5, 8% Me2SO, 25° C.
T3 construct: Asp-ase purified by HPLC as previously described; endogenous in cells; host or cells: rat RNK LGL leukemia cells, cytolytic granules, HPLC-purified (Sayers et al. 1992)
T3 sequence (P18291 21-248): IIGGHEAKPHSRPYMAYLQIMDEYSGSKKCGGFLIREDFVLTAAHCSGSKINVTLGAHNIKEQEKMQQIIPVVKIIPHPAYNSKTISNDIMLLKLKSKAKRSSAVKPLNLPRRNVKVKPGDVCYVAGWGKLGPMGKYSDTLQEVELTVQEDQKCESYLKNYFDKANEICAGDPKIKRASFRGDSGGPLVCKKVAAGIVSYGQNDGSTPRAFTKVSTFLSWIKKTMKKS
Description: as §1, §2

Suc-Phe-Leu-Phe-SBzl = target: T4, Suc-Phe-Leu-Phe-SBzl
T4 sequence (peptide, N-terminal Suc; C-terminal thiobenzyl ester (SBzl)): FLF

Boc-Ala-Ala-Met-SBzl = target: T5, Boc-Ala-Ala-Met-SBzl
T5 sequence (peptide, N-terminal Boc; C-terminal thiobenzyl ester (SBzl)): AAM

Boc-Ala-Ala-Ser-SBzl = target: T6, Boc-Ala-Ala-Ser-SBzl
T6 sequence (peptide, N-terminal Boc; C-terminal thiobenzyl ester (SBzl)): AAS

Boc-Ala-Ala-Asp-SBzl = target: T7, Boc-Ala-Ala-Asp-SBzl
T7 sequence (peptide, N-terminal Boc; C-terminal thiobenzyl ester (SBzl)): AAD

[1] = Met-ase activity of fractions on purification from RNK granules; format: biochemical, rat
Description: The protease of the present invention is purified to homogeneity sufficient to be sequenced and is at least about 90% pure. At this purity level, the protease has a Met-ase activity of about 156 nM/sec/μg without the intentional addition of other substances such as other proteins or carriers. The assay for measuring this activity was performed as described in the Experimental Details section. The specific activity, however, depends on the degeneracy and folding of the protease and may be as low as about 100 nM/sec/μg to as high as about 200 nM/sec/μg.
Assay of Proteases. Thiobenzylester substrates were used to measure protease activities. For monitoring enzyme activities from granules and column fractions, assays were performed at room temperature using 0.5 mM 5,5'-dithiobis-(2-nitrobenzoic acid) (DTNB) (Sigma) to detect the HSBzl leaving group (e410 =13600M-^-1 cm^-1).
BLT-esterase activity was estimated using a microtiter assay (Green, G. D. J., and Shaw, E. Anal. Biochem. 93:223-226 (1979)). Briefly, 50 μl of sample was added to 100 μl of 1 mM DTNB, made up in 10 mM Hepes, 1 mM CaCl2, 1 mM MgCl2, pH7.2. The reaction was initiated by the addition of 50 μl of BLT (Sigma) to give a final concentration of 500 μM. For Metase determinations, 50 μl of dilutions of the sample in 0.1M Hepes, 0.05M CaCl2, pH7.5 were added to 100 μl of 1 mM DTNB and the reaction was initiated by the addition of 50 μl of Boc-Ala-Ala-Met-S Benzyl (Bzl) to give a final concentration of 150 μM. The duration of the assay depended on color development, the rate of which was measured (0.D410) on a Dynatech MR 5000 microplate reader. Controls of sample and DTNB alone or DTNB and substrate alone were run. For more sensitive comparisons of enzymatic activities, peptide thiobenzyl ester substrates were used to measure protease activities. The chymase substrate Suc-Phe-Leu-Phe-SBzl was purchased from BACHEM Bioscience Inc., Philadelphia, Pa. Z-Arg-SBzl (the tryptase substrate, Kam, C-M., et al. J. Biol. Chem. 262:3444-3451 (1987)); Boc-Ala-Ala-AA-SBzl (AA=Asp, Met, Leu, Nle, or Ser) and Suc-Ala-Ala-Met-SBzl (Odake, S., et al. Biochemistry 30:2217-2227 (1991); Harper, J. W., et al. Biochemistry 23:2995-3002 (1984)) were synthesized previously. Boc-Ala-Ala-Asp-SBzl is the substrate for Asp-ase and peptide thiobenzyl esters containing Met, Leu or Nle are substrates for Met-ase SP. Assays were performed at room temperature in 0.1M, Hepes buffer, pH7.5, containing 0.01M CaCl2 and 8% Me2 SO using 0.34 mM 4,4'-dithiodipyridine (Aldrithiol-4, Aldrich Chemical Co., Milwaukee, Wis.) to detect HSBzl leaving group that reacts with 4,4'-dithiodipyridine to release thiopyridone (ε324=19800M^-1 cm^-1, Grasetti, D. R. and Murray, J. F. Arch. Biochem. Biophys. 119:41-49 (1967)). The initial rates were measured at 324 nm using a Beckman 35 spectrophotometer when 10-25 μl of an enzyme stock solution was added to a cuvette containing 2.0 ml of buffer, 150 μl of 4,4'-dithiodipyridine and 25 μl of substrate. The same volume of substrate and 4,4'-dithiodipyridine were added to the reference cell in order to compensate for the background hydrolysis rate of the substrates. Initial rates were measured in duplicate for each substrate concentration and were averaged in each case. Substrate concentrations were 100-133 μM.

Suc-Ala-Ala-Met-SBzl = target: T8, Suc-Ala-Ala-Met-SBzl
T8 sequence (peptide, N-terminal Suc; C-terminal thiobenzyl ester (SBzl)): AAM

Boc-Ala-Ala-Leu-SBzl = target: T9, Boc-Ala-Ala-Leu-SBzl
T9 sequence (peptide, N-terminal Boc; C-terminal thiobenzyl ester (SBzl)): AAL

[2] = 10 μl enzyme solution (HPLC fraction 56)
[3] = 10 μl enzyme solution (HPLC fraction 104)

Molecule: CSCC[C@H](NC(=O)[C@H](C)NC(=O)[C@H](C)NC(=O)CCC(=O)O)C(=O)SCc1ccccc1 [Suc--Ala--Ala--Met--SBz1, Suc-Ala-Ala-Met-SBzl] (Suc-Ala-Ala-Met-SBn)
Initial Rates, Met-ase (Met-ase; 25 μl enzyme solution (HPLC fraction 104)): 10.1 nM/s

Molecule: CC(C)C[C@H](NC(=O)[C@H](Cc1ccccc1)NC(=O)CCC(=O)O)C(=O)N[C@@H](Cc1ccccc1)C(=O)SCc1ccccc1 [Suc--Phe--Leu--Phe--SBz1, Suc-Phe-Leu-Phe-SBzl] (Suc-Phe-Leu-Phe-SBn)
Initial Rates, Tryptase (Tryptase; [2]): 0 nM/s
Initial Rates, Met-ase (Met-ase; [3]): 0 nM/s
Initial Rates, Asp-ase (Asp-ase): 0 nM/s

More lines, main results first:

Initial Rates, Tryptase (Tryptase; [2]): 22.7 nM/s
Initial Rates, Tryptase (Tryptase; 25 μl enzyme solution (HPLC fraction 56)): 93.4 nM/s
Initial Rates, Met-ase (Met-ase; [3]): 0 nM/s
Initial Rates, Asp-ase (Asp-ase): 0 nM/s
Molecule: N=C(N)NCCC[C@H](NC(=O)OCc1ccccc1)C(=O)SCc1ccccc1 [Z--Arg--SBz1, Z-Arg-SBzl]

Initial Rates (Suc-Phe-Leu-Phe-SBzl): 0 nM/s
Initial Rates (Boc-Ala-Ala-Met-SBzl): 0 nM/s
Initial Rates (Boc-Ala-Ala-Ser-SBzl): 1.3 nM/s
Initial Rates (Boc-Ala-Ala-Asp-SBzl): 12.6 nM/s
Molecule: Asp-ase (RNKP-1) (from UniProt P18291) (enzyme)

Initial Rates (Suc-Ala-Ala-Met-SBzl): 10.1 nM/s
Initial Rates (Boc-Ala-Ala-Nle-SBzl): 3.9 nM/s
Initial Rates (Suc-Phe-Leu-Phe-SBzl): 0 nM/s
Initial Rates (Boc-Ala-Ala-Met-SBzl): 4.2 nM/s
Initial Rates (Boc-Ala-Ala-Leu-SBzl): 2.9 nM/s
Initial Rates (Boc-Ala-Ala-Ser-SBzl): 0 nM/s
Initial Rates (Boc-Ala-Ala-Asp-SBzl): 0 nM/s
B1: RNK-Met-1 (enzyme)
chain: T1 sequence (Q03238 21-258 limits assumed)
Increase in the specific activity on purification to homogeneity from the granule extract [1]: 29 fold
Rate ([1]; Met-ase rate, protein in assay 10, 3.4, 1.3, 0.1 μg by fraction): 17 nM/s
Specific Activity ([1]; Met-ase, purification step): 156.0 nM/sec/μg protein
Met-ase activity ([1]; protease at least about 90% pure, no added proteins or carriers): about 156 nM/sec/μg
Total ([1]; total Met-ase activity of the fraction): 2,807 nM/sec
